The numbers were not newly measured in PMC8507859, which cites them from elsewhere.

Read-outs that look alike come from different tables or passages of the source.

The target in series [1] is MMP-14 (Homo sapiens) (UniProt P50281).
Series [2] shares this target. This is another data set of the same source.
Series [3] deals with Integrin α2 (Homo sapiens) (UniProt P17301).
Chain of Integrin α2 (Homo sapiens) (P17301 30-1132): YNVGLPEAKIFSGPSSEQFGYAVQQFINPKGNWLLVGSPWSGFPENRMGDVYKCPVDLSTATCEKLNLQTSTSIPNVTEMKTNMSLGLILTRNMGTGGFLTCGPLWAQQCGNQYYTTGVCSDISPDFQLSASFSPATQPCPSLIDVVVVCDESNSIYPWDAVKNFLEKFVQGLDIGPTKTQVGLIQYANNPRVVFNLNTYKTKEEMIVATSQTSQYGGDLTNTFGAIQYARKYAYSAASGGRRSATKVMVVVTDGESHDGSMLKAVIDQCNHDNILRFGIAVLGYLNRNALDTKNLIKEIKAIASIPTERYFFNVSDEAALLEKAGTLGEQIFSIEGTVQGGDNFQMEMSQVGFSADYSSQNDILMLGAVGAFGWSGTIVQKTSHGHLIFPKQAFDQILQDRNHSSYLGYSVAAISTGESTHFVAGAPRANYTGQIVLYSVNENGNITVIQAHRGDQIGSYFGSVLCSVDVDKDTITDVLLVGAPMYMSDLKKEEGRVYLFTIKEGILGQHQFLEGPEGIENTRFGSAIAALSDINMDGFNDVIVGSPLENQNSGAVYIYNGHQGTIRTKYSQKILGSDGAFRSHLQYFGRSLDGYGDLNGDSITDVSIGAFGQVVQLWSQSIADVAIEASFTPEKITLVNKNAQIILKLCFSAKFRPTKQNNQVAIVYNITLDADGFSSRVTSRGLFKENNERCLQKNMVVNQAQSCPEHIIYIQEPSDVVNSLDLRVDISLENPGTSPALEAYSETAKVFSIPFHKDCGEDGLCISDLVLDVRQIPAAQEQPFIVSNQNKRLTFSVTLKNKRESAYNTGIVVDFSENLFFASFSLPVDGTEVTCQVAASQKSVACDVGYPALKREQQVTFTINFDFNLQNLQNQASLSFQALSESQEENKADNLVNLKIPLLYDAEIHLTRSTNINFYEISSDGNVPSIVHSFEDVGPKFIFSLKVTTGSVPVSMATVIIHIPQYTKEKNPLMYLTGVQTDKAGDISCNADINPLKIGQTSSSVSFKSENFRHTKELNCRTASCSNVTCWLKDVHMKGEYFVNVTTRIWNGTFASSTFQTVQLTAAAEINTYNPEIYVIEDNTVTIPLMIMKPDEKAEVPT

Chain of Lumican (P51884 19-338): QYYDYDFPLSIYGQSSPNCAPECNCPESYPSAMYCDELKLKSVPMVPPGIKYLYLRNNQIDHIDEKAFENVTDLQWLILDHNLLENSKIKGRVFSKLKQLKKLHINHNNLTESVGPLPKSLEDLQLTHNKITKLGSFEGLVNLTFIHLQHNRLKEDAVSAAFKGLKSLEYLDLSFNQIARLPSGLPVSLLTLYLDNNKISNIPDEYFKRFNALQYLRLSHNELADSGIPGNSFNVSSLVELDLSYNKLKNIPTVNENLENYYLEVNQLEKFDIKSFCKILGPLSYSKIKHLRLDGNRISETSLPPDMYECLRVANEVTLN
Chain of TIMP-2 (P16035 27-220): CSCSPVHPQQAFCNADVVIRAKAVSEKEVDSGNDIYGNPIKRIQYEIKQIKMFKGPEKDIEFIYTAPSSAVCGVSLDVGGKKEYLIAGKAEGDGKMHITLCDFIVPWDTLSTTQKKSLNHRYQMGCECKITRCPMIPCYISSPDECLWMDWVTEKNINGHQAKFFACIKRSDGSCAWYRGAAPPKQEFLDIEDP
Chain of TIMP-1 (P01033 24-207): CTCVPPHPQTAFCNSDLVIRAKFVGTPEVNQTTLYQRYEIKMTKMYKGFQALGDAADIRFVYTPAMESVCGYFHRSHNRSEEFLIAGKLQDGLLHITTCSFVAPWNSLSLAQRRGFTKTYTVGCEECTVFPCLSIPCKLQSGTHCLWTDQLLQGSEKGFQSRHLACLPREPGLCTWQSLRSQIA

Take TIMP-1 (from UniProt P01033): the Kd in the series with MMP-14 (Homo sapiens) [1] was 1530 nM.

As to TIMP-2 (from UniProt P16035), in the series with MMP-14 (Homo sapiens) [2], the Kd was 56.1 nM.

Consider Lumican (from UniProt P51884), for which the dissociation constant Kd in series [3] was 200 nM.
